Substrate: CCn1c(=NN=c2sc3cc(S(=O)(=O)O)ccc3n2CC)sc2cc(S(=O)(=O)O)ccc21
Assay: purified protein
Type: biochemical, Klebsiella pneumoniae
Settings: 40 μM H2O2, 100 nM enzyme, 50 mM phosphate-citrate pH 5.0, room temperature

B1: KpDyP (B-type Klebsiella pneumoniae dye-decolorizing peroxidase) (Klebsiella pneumoniae) (protein)
chain: MSQVQSGILPEHCRAAIWIEANLKGDVNALREASKIFVDNVATFQAKFPDAKLGAVVAFGNNVWRQLSGGEGADELKDFPVYGKGLAPSTQYDLLIHILSARHEVNFSVAQAALAAFGDAIDVKEEIHGFRWVEERDLSGFVDGTENPAGEETRREVAVIKDGVDAGGSYVFVQRWEHNLKQLNRMSVPDQEMMIGRTKDANEEIDGDERPVTSHLSRVDLKEDGKGLKIVRQSLPYGTASGTHGLYFCAYCARLYNIEQQLLSMFGDTDGKRDAMLRFTKPVTGGYYFAPSLERIQAL
notes: recombinant from E. coli BL21 (DE3) Tuner; dimer
Work on B1 yielded a Km of 20.5 ± 1.9 µM, a kcat of 3.1 ± 0.1 s⁻¹ and a kcat/Km of 150000 M⁻¹ s⁻¹.
